{
  "source": "a protein production outcome set (Wang et al. 2014)",
  "data": [
    {"assay": "label from the status in PepcDB records", "values": [
      {"sequence": "MGHLSAPLHRVRVPWQGLLLTASLLTFWNPPTTAQLTTESMPFNVAEGKEVLLLVHNLPQQLFGYSWYKGERVDGNRQIVGYAIGTQQATPGPANSGRETIYPNASLLIQNVTQNDTGFYTLQVIKSDLVNEEATGQFHVYPELPKPSISSNNSNPVEDKDAVAFTCEPETQDTTYLWWINNQSLPVSPRLQLSNGNRTLTLLSVTRNDTGPYECEIQNPVSANRSDPVTLNVTYGPDTPTISPSDTYYRPGANLSLSCYAASNPPAQYSWLINGTFQQSTQELFIPNITVNNSGSYTCHANNSVTGCNRTTVKTIIVTELSPVVAKPQIKASKTTVTGDKDSVNLTCSTNDTGISIRWFFKNQSLPSSERMKLSQGNTTLSINPVKREDAGTYWCEVFNPISKNQSDPIMLNVNYNALPQENGLSPGAIAGIVIGVVALVALIAVALACFLHFGKTGRASDQRDLTEHKPSVSNHTQDHSNDPPNKMNEVTYSTLNFEAQQPTQPTSASPSLTATEIIYSEVKKQ", "protein production": "failed"},
      {"sequence": "MGIKHLNLTVADVVAAREFLEKYFGLTCSGTRGNAFAVMRDNDGFILTLMKGKEVQYPKTFHVGFPQESEEQVDKINQRLKEDGFLVEPPKHAHAYTFYVEAPGGFTIEVMC", "protein production": "not failed"},
      {"sequence": "MGILSGNPQDEPLHYGEVFSTWTYLSTNNGLINGYRSFINHTGDEDLKNLIDEAIQAMQDENHQLEELLRSNGVGLPPAPPDRPAARLDDIPVGARFNDPEISATISMDVAKGLVTCSQIIGQSIREDVALMFSQFHMAKVQFGGKMLKLNKNKGWLIPPPLHSDRPIKE", "protein production": "not failed"},
      {"sequence": "MGIPEEIPPVFKTAVDVLRGASFGVADASILGYPATSMTLNQQVDNFRSMKSNWIDDFIGRSLFMIYIGTEDKLNFTKNKPNAASICHFRY", "protein production": "failed"},
      {"sequence": "MGIREDIKTVFEKDPAARSTLEVLCCYPGLHAIWMHRVAHSLWNKDLLFLARLTSHISRALTGIEIHPGAKLGKRVFIDHGSGVVIGETAEVGDDVLIYMGVVLGGTALEKKKRHPTVENNAVLGSGAIVLGPITIGRGAKVGAGSVVVRSVPPEATVVGVPARIAGTPQPSAPSEQLDHNKLPDPVLTVISQVLDRMSRLEERFQAHEKASTTPVPVSFVSSENPSVKKDEQIYSLLKDVIDPAVGIDIVNLGFVKEVTVNGTNVDVNLVLTTSACPMIEYFRNQVKRKVMGIKGIENVTVNILDEPWKWDGAGRQAFH", "protein production": "failed"},
      {"sequence": "MGIRRLVSVITRPIINKVNSSGQYSRVLATREDQDKASPKYMNNDKIAKKPYTYRLFSILGILSICSLLLISLLKPFNGADAPQCESIYMFPSYARIDGFDERYTPLAHKYHLYLYREQSVDREPLNGDELQLDGIPVLFIPGNAGSFRQCRSIASACSNIYFDSNTRATLRNENVRNLDFFTADFNEDFTAFHGETMLDQAEYLNDAIKYILSLYERTPDYPHPKPQSVIIVGHSMGGIVSRVMLTLKNHVPGSISTILTLSSPHAASPVTFDGDILKLYKNTNEYWRKQLSQNDSFFSKNISLVSITGGILDTTLPADYASVEDLVSLENGFTSFTTTIPDVWTPIDHLAIVWCKQLREVLARLLLESIDASKPEKVKPLNQRLQIARKLLLSGFEDYSWMNSKLNYPQENLQEFSDNFFSDYATLEMNDVLDFEMFNLEKWHNNYTKINIPSNISSTEHLHFTLLTSLDMPMIYFCTESRVNLSCITAVDSILTVPRSSKDTQFAADSSFGEAKNPFKAVSVGKNILQKYDYLMISKPTYGEFSEQEGMEDNQGFLLALLRNVSNVQIVNTTPSQILLFGEQLHLDGKDIEQVISFSNLWDSLLSYKLETKIEASNEGIASEETLFQPFIRQWVYEPFESKWHLNIINKSLDINMHNVAPFIPLNESEPRSLQLSFFIPPGMSLEAKMTINWSLTLKMLFIRYRLALASFPVAFIALVLSYQFYWYNKTSEFPSFDSTLGYILRKHGILMFFTLFLASPVVNNKLVQRILYLLDPVGLNYPFLLSERNMHANFYYLGIRDWFMSTIGILFGVMTVGLLALVSKIFGSLEILVIFLQRKLSKKNTEDKEAFDTIEHKAYGKGRLMASVLLLLLVFFHIPYQMAFVISLVIQIATCIRVALLKLSNNEQKLNLLNYNMTLLLLLLFVSAINIPIIIVFLHNVAIKWETSFRSHHNILAVAPIIFLVGNNSIFKMPNSVPLDTWDGKVTIILFVYLTVFSFIYGIRNLYWIHHLVNIICAWLLFFETIH", "protein production": "failed"},
      {"sequence": "MGISNWQPTMRAACWMSGALVSLLAMAVATRELSAHVSVFQILFFRSACGLLIIVPLVWRAGWRKVATARPGLHVLRNATHFLAQYGWVYGIAFIPMAEVFAIEFTVPVWTALLAAVLLGERLTAARLLAVALGLAGVFVIVRPGSGMIHPAALAVLLGAVAFALAYIMTKMLARTETPLCILFYMTLVQLPLGLAPALANWSSPPPHVWPWILVVGTMGLATHYCLARAMALADATVVVPLDFLRLPLIAVVGAVFYGEAIEPLLFLGAGMILAGNLYSILAERRRPAMPRAARDGSH", "protein production": "failed"},
      {"sequence": "MGKEYVVIGLGRFGGSIVRELNALDMDVMAIDHDENRVNEYSDIATHAVVADTTDEAVMKSLGIRNFDHVIVAIGENIQSSTLTTLILKELGVKKVTAKAQNDYHAKILNKIGADTVVHPERDMGRRIAHNVASASVLDYLELADEHSIVELKATEKMAGQSIIDLDIRAQYGINIIAIKRGKEFIISPNPNINLEIGDILIMIGHDNDLNRFEKNIATR", "protein production": "failed"},
      {"sequence": "MGKFTQRLSLRVRLTLIFLILASVTWLLSSFVAWKQTTDNVDELFDTQLMLFAKRLSTLDLNEINAADRMAQTPNRLKHGHVDDDALTFAIFTHDGRMVLNDGDNGEDIPYSYQREGFADGQLVGEDDPWRFVWMTSPDGKYRIVVGQEWEYREDMALAIVAGQLIPWLVALPIMLIIMMVLLGRE", "protein production": "not failed"},
      {"sequence": "MGKGGDIVVGNGKKYAAPLLVLGCVVFGLGSLIVRSVPVGSYAIAFWRLLISVFVFWFLARFFRQKFPKNRKTVRYALTAGVFLAFDLALWHESIHAVGPGISTLLNSLQIFFLSAIGVFFFGERLSGLKKAGLISAVAGVAMIAGAEFGYNGNAVWGFASGLVSGLMLALSMVFVRKTHEIEPVALFPSMMILSLGGAVSLVVPALLMDGGALYPTTWKDAGLVLVYGVVMQCFAWAMVAYAIPLLSLSLTGLLLLSEPVAALFIDYFGLGKPIEGVQWAGVALTLSAIYLGSLKRQSSH", "protein production": "failed"},
      {"sequence": "MGKMRTPQEVPARLDALAEAARKLKFDVREPVDAGAGAIGAVHSLDYLRFLREAHARWKQLPDDWGDEVVSNVFVREPNALRGVLAQAARYLADGSCPVGPHTWQSAYWAAQCAISGAQTLLDGERHAYALCRPPGHHARRDAAGGFCYLNNAAIAAQMLTQRYKRVAILDTDMHHGQGIQEIFYERSDVLYVSIHGDPENFYPVVAGFENERGAGEGYGYNVNLPMPHGSPEPVFFDRLQQAQRAIELFQPDALVLSLGFDVFEKDPQAMVAVSANGFERLGQAIGAFKLPTLIVQEGGYYIEGLEDNAERFFAGLAKALEHHHHHH", "protein production": "failed"},
      {"sequence": "MGKRIAFWFEFASTYSYLSAMRIERAAADLGVTIAWEPFLLGPIFAAQGWTSSPFNLFPAKGRYMWRDMERLCARQGLPLTRPDPFPQNGLPAARLAMVAREMGHIAPFVRAVYAAQFGRGLVISDPQVLAECWAEAGLPPEAMEQAKSPEIKAALFAQGERAAALDLFGAPSFVVGEEVFWGDDRLDQALALAAQS", "protein production": "not failed"},
      {"sequence": "MGKSIPVKTGLRGASAAVAGFIKSSKPIRPISSMDSSDKDSSSTTTTSETTRRFVPLSSVVSDCAKRWFKDTLEEAKAGNITMQVLLGQMYYSGYGVPKDARKVSSLFPPFQSLLFQVLGYNASDSDSESD", "protein production": "failed"},
      {"sequence": "MGKVYKKVELVGTSEEGLEAAIQAALARARKTLRHLDWFEVKEIRGTIGEAGVKEYQVVLEVGFRLEET", "protein production": "not failed"},
      {"sequence": "MGLALCGAAAQAQEKPNFLIIQCDHLTQRVVGAYGQTQGCTLPIDEVASRGVIFSNAYVGCPLSQPSRAALWSGMMPHQTNVRSNSSEPVNTRLPENVPTLGSLFSESGYEAVHFGKTHDMGSLRGFKHKEPVAKPFTDPEFPVNNDSFLDVGTCEDAVAYLSNPPKEPFICIADFQNPHNICGFIGENAGVHTDRPISGPLPELPDNFDVEDWSNIPTPVQYICCSHRRMTQAAHWNEENYRHYIAAFQHYTKMVSKQVDSVLKALYSTPAGRNTIVVIMADHGDGMASHRMVTKHISFYDEMTNVPFIFAGPGIKQQKKPVDHLLTQPTLDLLPTLCDLAGIAVPAEKAGISLAPTLRGEKQKKSHPYVVSEWHSEYEYVTTPGRMVRGPRYKYTHYLEGNGEELYDMKKDPGERKNLAKDPKYSKILAEHRALLDDYITRSKDDYRSLKVDADPRCRNHTPGYPSHEGPGAREILKRK", "protein production": "not failed"},
      {"sequence": "MGLCVSVNRNEYVSSSTTAKIVTINGDLREYDVPVLASQVLESESTSSSSSSSSSSYFLCNSDSLYYDDFIPAIESDEILQANQIYFVLPISKRQYRLSASDMAALAVKASVAIEKAAGKKNRRRRSGRISPVVTLNQANDNRIAAVNNRIGGEATNMMMQKGKLPNRTTPFKDTNGYSRSGSVRKLKRYTSGRAKLAVRSFRLRLSTIYEGSSFN", "protein production": "failed"},
      {"sequence": "MGLFDFLKKGLQKTKETFFGRVVKLLKGKKLDDETREELEELLIQADVGVETTEYILERLEEKDGDALESLKEIILEILNFDTKLNVPPEPPFVIMVVGVNGTGKTTSCGKLAKMFVDEGKSVVLAAADTFRAAAIEQLKIWGERVGATVISHSEGADPAAVAFDAVAHALARNKDVVIIDTAGRLHTKKNLMEELRKVHRVVKKKIPDAPHETLLVIDATTGQNGLVQAKIFKEAVNVTGIILTKLDGTAKGGITLAIARELGIPIKFIGVGEKAEDLRPFDPEAFVEVLLSE", "protein production": "not failed"},
      {"sequence": "MGLFLEDLAVGDRFDSARHRVEAAAIKAFAGEFDPQPFHLDEEAARHSLFGGLAASGWHTAAITMRLLVTSGLPLAQGIIGAGTELSWPNPTRPGDELHVETTVLAITPSKSRPDRAIVTCQSDTLNQRGEVVQRSTAKVVVFRRPLEHHHHHH", "protein production": "not failed"},
      {"sequence": "MGLFQSDKAAEEIDPPQDVTFVNDEAGANSNTTAAKKTESEKSDTAKADQASSTVMRELYLIDKNGYVVAQTLPLPKSESTAKQALEYLVQGGPVSEILPNGFRAVLPADTTVNVDIKKDGTAIADFSNEFKNYKKEDEQKIVQSVTWTLTQFSSIDKVKLRINGHELKEMPVGGTPISDDLSRKDGINLETAGVNDLTATHPLTVYYLAENEDSEYYVPVTKRIDNSEKDDITAAINELAKGPSKVSGLLTDFSEDVKLVSKPKIKDGRVTLDFNQSIFGSADEKTKMISSEVLNSIVLTLTEQPDVKSVSVKVNGKSELVNEKGEKLTEPVSRPSQVNTGSFLEHHHHHH", "protein production": "not failed"},
      {"sequence": "MGLGMEIGKLIVAFLVLINPFSALSLYLDLTNGHSTKERRKVARTAAVAVFAVIAVFALIGGALLKVLGISVGSFQVGGGILVLLIAISMMNGNDNPAKQNLGAQPETGQARPARNAGAIAVVPIAIPITIGPGGISTVIIYASAAKTYSDIALIIAAGLVVSAICYAILIVAGKVSRLLGATGLTILNRIMGMMLAAVSVEIIVSGLKTIFPQLAG", "protein production": "failed"},
      {"sequence": "MGLIARLRRWYHLWVWRLRYWWYDTPSGVCAQHWAQGLGVLVFIVQLVRVWVAAALPAPHGAPAQAVYWWVWQLAIAVVAAYVSAALRPKPESVKPQQAQVPTVQDGQAVKHHFGTVWVGDEFILAWKMQGAIPIKTKGAGC", "protein production": "failed"},
      {"sequence": "MGLKGYSVGEGGGEIVEVQGGHIIRATGRKDRHSKVFTSKGPRDRRVRLSAHTAIQFYDVQDRLGYDRPSKAVDWLIKKAKTAIDKLELGETTTTTTRQEPVNTKPESPTLVFQRENNDQTQFVAANLDPEDAMKTFFPATTTTNGGGGTNINFQNYPHQDDNNMVSRTTTPPPNLSQDLGLSLHPFQGNNNTVVVPETNNFTTTHFDTFGRISGWNHHDLTMTSSSSSEHQQQEQEERSNGGFMVNHHPHHHHHQPSMMTLLNSQQQQVFLGGQQQQQQRGTLQSSLFPHSFRSWDHHQTTSDHHHHQNQASSMFASSSQYGSHGMMMMQGLSFPNTTRLLHGEEATQPNSSSSPPNSHL", "protein production": "failed"}
    ]}
  ]
}
